{
  "source": "the DeepSol protein solubility set",
  "data": [
    {"test": "soluble on expression in E. coli; label from the status in PepcDB or PDB records", "values": [
      {"sequence": "MGLFQSDKAAEEIDPPQDVTFVNDEAGANSNTTAAKKTESEKSDTAKADQASSTVMRELYLIDKNGYVVAQTLPLPKSESTAKQALEYLVQGGPVSEILPNGFRAVLPADTTVNVDIKKDGTAIADFSNEFKNYKKEDEQKIVQSVTWTLTQFSSIDKVKLRINGHELKEMPVGGTPISDDLSRKDGINLETAGVNDLTATHPLTVYYLAENEDSEYYVPVTKRIDNSEKDDITAAINELAKGPSKVSGLLTDFSEDVKLVSKPKIKDGRVTLDFNQSIFGSADEKTKMISSEVLNSIVLTLTEQPDVKSVSVKVNGKSELVNEKGEKLTEPVSRPSQVNTGSFLEHHHHHH", "soluble on expression in E. coli": "soluble"},
      {"sequence": "MGSDKIHHHHHHMNKPLDKQLAELDIFSLLLFRAIFETGHANIAARQLDVSAPKVSRALASLRLIFADELFYRRQQGFRPTPLAEQIYPAIRELTDSINLLGMQLKDHQAFHRQECQVFDLAVSSGILTTLALEFNRREGLCPSVVLHHWQENTADRIHAGELDLGLALAPEPHTELSYERLCDAPGLCLVGAANHPIWQYTDICLEHICEYPFLCMNYPGFNDKVDPLELFCHREGLIPPTVLRVTDKEEWFGHLLCQHSLAFASPLEWGLLNALPGVEIKHLPAKEISRLHSGSAVPGLYLIEKPAHHRRYSPDDREKLLHIISLTLGLVTEDHPVNFSI", "soluble on expression in E. coli": "not soluble"},
      {"sequence": "MAHHHHHHMFCFSRGLWMRHIGQDVPKRHTHFVLESRLMYEKSFRDCWLHSVCRAISQLDEPLSKTVVGTHQKMLQRKVTCFQYNQYGLFKTPYYRLANVDRYHAVQGVAGTREWVPYVNVSYWTMNKMVRGGNLLVHRVHYTGWGTDSHLKKGGWEHRWNKVLQRNVLQYSRI", "soluble on expression in E. coli": "not soluble"},
      {"sequence": "KRGPSAVTVVTEQVETHEINQSLSLIGKLKAAESVVVASEVAGKVKQIAVKANQNVQQNQLLIQLDDDKAQAALVEAKAYLKDEERKLKEFQRLVKRNAITQTEIDAQKASVEIAQARLDAAKANLADLHITAPFSGTVGFIDFSRGKMVSAGTELLTLDDLSVMELDLQIPERYLSMLSVGMEVAAKTSAWGEQRFSGKVTGIDTRISAETLNLRVRIEFDNPENQLKPG", "soluble on expression in E. coli": "not soluble"},
      {"sequence": "MVIHIPVRESNYIEKILLPVMVYFIVNVKQNEWIYTILKEKFFYEEQEECHQILHMAHEILKGRRKGVAQDLTRNAFESYIKSSLNNWLCDPLSFSFSSYIRFRLRTYREMVAKLAEVAIDEYKMEQEYQMFIETLRQQVSSRKSRLSCVHLIFDESFIFYDDKGRRLKQEKLVQYIDEELLKQNDVYIDTKVIAPLLSISPKKIYLYTKEQDHNMIITLRNVFQERVQLHGLHDFERNVKNLKNKGNALDFLSFLEHHHHHH", "soluble on expression in E. coli": "soluble"},
      {"sequence": "MSSQIRQNYSTEVEAAVNRLVNLYLRASYTYLSLGFYFDRDDVALEGVCHFFRELAEEKREGAERLLKMQNQRGGRALFQDLQKPSQDEWGTTPDAMKAAIVLEKSLNQALLDLHALGSAQADPHLCDFLESHFLDEEVKLIKKMGDHLTNIQRLVGSQAGLGEYLFERLTLKHD", "soluble on expression in E. coli": "soluble"},
      {"sequence": "MSLEQPGQPPAHSLVSLRGSGHHVAIVDRSDGRLLGTIDSARAASQVHPGAVYLHQGETFVIEELDDQVALAVPDQPDYQTFARSTTDIRIVGEVDKVCNPAPGLWVSNLVVEVTDRVVGYTMKASDGSVLAMVPLQMPPQTLVTRAVAYTVDPLVLDSLGITDVPGALHAAEHAAIGLLPLIATCDRWDIGGVSTAEHPDTGLPTVFVYDGHPGGAGFADCGYERFPEWVATTFEAIRSCQCESGCPSCVQSPKCGNGNDPLSKEGAIALLGAMCTMLGVTEGHHHHHH", "soluble on expression in E. coli": "not soluble"},
      {"sequence": "MLSARYLHLHEALGLGPMWLKQAAAVLPPKNTPAPSAQARPQTVRAAPIRPSQPHNGQARLETMKALETAAVPTRKPAPETETPLPGLSDGIAPVPAASGITKLAVVSLCPPIEDAVYGQLFHGKAGILLDNILKAVGLDAAYVHKTCWVKTAAVGNPMPSEQAVANALGQIARELDGCRAPAVLFLGQAFVQPERQTMIETLCGSRPFFIIDHPARLLRQPELKARAWQVLKQLKRALRQGGGS", "soluble on expression in E. coli": "not soluble"},
      {"sequence": "TIVKSEIIRKLMDAKKFLLDGYIDEGVKIVLEITKSSTKSEYNWFICNLLESIDCRYMFQVLDKIGSYFDLDKCQNLKSVVECGVINNTLNEHVNKALDILVIQGKRDKLEEIGREILKNNEVSASILVAIANALRRVGDERDATTLLIEACKKGEKEACNAVNTLTVRSVM", "soluble on expression in E. coli": "soluble"},
      {"sequence": "MSLTGFLLLHGTIVTVDRERRIIEDGALAINDDRIVDIGTVDELEPRHGGKEVIDCRGKLIIPGLIDAHGHAGHALLRSIAADTNAMWMKIITPTYYHYVTRDYWYADGLISGIERLRAGVTTGASIITSMPRADDPVFAINHARAYSELGLREIICVGPSGLPWPHPVTRWESGQPERRDVSFDEMMDGSEAVIETLHGSADGRISVFLTPFTIVPSVEPSNASSPDQAVKLTEGDRMQARRVREMARKRGVRLHSDAFAGQIRMAFQDKENALLGPDIHLQHCWGISHDEIDILAETGTRVTHAPPGRSTPIMEMMSKSIRVAITTDGAAPSRHFDMLQTARLAQFTQHLLHNHDRYLLPPGKIFEMITIDAAHAIGMEDEIGSLEIGKKADVVIIDMRKPHLMPMWMPVHRLVHQALGSDVDTVFVDGKLLMDNGRVLTSDVDAAITFGQQEAMALAERAGLKVHMHDPGWGRLLRTFDEQVYPPRPPKDASYRVTDHESGQDHEGHHHHHH", "soluble on expression in E. coli": "soluble"},
      {"sequence": "SNANVGVFVLMHGDSTASSMLKTAQELLGTSIGTAMNMPLTMEVQTMYEQLRNQVITQKESLNNGILLLTDMGSLNSFGNMLFEETGIRTKAITMTSTMIVLEAIRMASVGRSLEDIYQNIQLSFESVVREQFRSSLQK", "soluble on expression in E. coli": "soluble"},
      {"sequence": "MSLKNGLRIYALGGISEIGRNMTVFEYNNRLLIVDCGVLFPSSGEPGVDLILPDFGPIENKLDKVDALVITHGHEDHIGAIPWLLKLRPDMPILASKFTMALIAAKCREHRQRPKLIEVNEKSDINRGPFNIRFWAVNHSIPDCLGVAIKTGAGLVIHTGDVKLDQTPPDGRPTDLPALSRFGDEGVDLLLCESTNATVPGFSGSEADVAPTLKRLISDAKQRVILASFASNVYRVQAAVDAAVAAGRKVAFNGRSMIRNMEIAEKMGYLKAPRGTIVSMDDAAKMAPHKVVLITTGTQGEPMAALSRMARREHRQITVRDGDLIILSSSLVPGNEEAVFGVMNMLSQIGATVVTGRDAKVHTSGHGFAGELLFLYNAARPKNVMPVHGEWRHLRANKELAISTGVEADRVVLAQNGVVVDLVDGRARVVGQMQVGHLYVDGVTMGDIDAEVLEERTSLGEGGLIAITAVIDSRTARLLERPTVQAKGFSEDAVAMMPEVTELVEKTMNDLAAEGENDPYRMVQQLRRRVSRFVEQKWRRKPMIMPTVIPTTSATIDIDDADVRASREGHHHHHH", "soluble on expression in E. coli": "soluble"},
      {"sequence": "MHIISLLLENEPGALSRVVGLFSQRNYNIESLTVAPTEDPTLSRLTLTTVGHDEVIEQITKNLNKLIEVVKLVDL", "soluble on expression in E. coli": "soluble"},
      {"sequence": "MAHHHHHHMLSASSSSSELETADDASVEHAALAYERVRREHALQRYLKAREAYEVACIARERRQLVVQSHNHTLRLLGQVVCDVKAVVDGTLKEGLSVRESTATAAEMLLASSCYKRAERGLVTLLAHEGRQHEVLRAATSPATETSRIPQVFSSGSRAEKPVASSPAKHMLRPLLLLCEWRLDYATLLCRQRLPLFSELARAQRVVSNSRESAREARGRMSAPTTPVVQRCQVQVAEARASLAKARAFQRSLKDRLHQLHQMLSRSAPVHAESGVFVDAGVAEEIQARLRQELAVGHVTLLRILCESLSGAFDERGRLTAL", "soluble on expression in E. coli": "not soluble"},
      {"sequence": "RLSQRLIEPVSALKVQLDQHQGDTSQKFIVPEGSAKEFQTLASQLNEYRSQINQVIKREQAFARYASHELRTPLTVMKGSSSLLARSPSTPFQERQIGRIQDATQQMSTMVDALLGLVRYERNTDDSPVRTISEQELHNIVALSQAQADEKSLEFNVQILGHPQTKATTAVLNITLSNLIRNGIAATSAGTIHITMTDTTLSVKDEGEGFSSVPDAEGHGLGLMIVDDLCRRYGWQFTIDTHSEGGCEAVIDLSSEHHEACSEQLPQH", "soluble on expression in E. coli": "not soluble"},
      {"sequence": "MKPLPDYNHSVVEQLNALTAAGTLQADAAQLGVAAHLDRILADLKARKPARKKSALGWMFARKAGPAAFVKGLYVHGSVGRGKTMLMDMFYEMAPVSSKRRCHFHEFMADVHNRVHTHRQKLKNGETKQADPIPPVAAQLLAEAELLCFDEFTVTDIADAMILARLFSELFANGCTLVTTSNVVPDNLYKDGLNRGLFLPFVDLLKKYVEVVTLDSPTDYRMEKLESLPVYITPLDGSADQAMDMAWRHMTAGHLVAPTEIPMKGRSILVPRRQRPGCPFFLFRPLRKAARSFRLSRHRQSFRYGLHRSHSASQCRQALEHHHHHH", "soluble on expression in E. coli": "soluble"},
      {"sequence": "CPECDEPLHYIRDAVSEKLEYIPAHFVVNRYVRPQYSCPCCQKVFSGEMPAHILPKSAVEPSVIAQVIINKYGDHLPLYRQQQVFARSDVGLPVSSMADMVGAAGAALSPLAALLHRELINRPVVHADETTLKILNTKKGGKSCSGYLWAYVSGERTGPSVVCFDCRTGRSHEYPENWLQGWGGTLVVDGHKAYRTLANKV", "soluble on expression in E. coli": "not soluble"},
      {"sequence": "MFKILLALCIVGCSFAAPIHGDVDDELLGLAWEAAATSVNNGNRGKFWVPIEIQSSDKNGAVTNLVVVFQESWCSVEEGNDLEDVCESMCPVYYGGAKATYRVTATESNGGSDFESVRIE", "soluble on expression in E. coli": "not soluble"},
      {"sequence": "MIYRFTIISDEVDDFVREIQIDPEATFFDLHEAILKAANYTNDQMTSFFICDDDWEKEKEITLEEMDNNPEMDSWIMKETRLNELIEDEKQKLLYVFDYMTERCFFIELSEIITGKEIKGAKCTKKSGEAPKQTVDFEEMAAGGGSLDLDENFYGDQDFDMEDFDAEGFDVNDGAAGGGSSYDEDKFLEHHHHHH", "soluble on expression in E. coli": "soluble"},
      {"sequence": "MGSDKIHHHHHHMIRNCFLCAAKTDNVFSSTWMLPGLAPTEIGFSICPKCGSVCQSPSVSYDDMMTIYSSIAVYTNPGRQGLPSSAKIRDLDEQIQFIKRGIGHLPKSAMQIGSSDGYTLSRFRQAGVELVMGVEPGSTSIEIAKRLYNIDCIHGTAEDFETDKDFELILLTHVLEHIYEPQVTLDKCRKIQNTPGEKFIYVEVPLMATAASLCPGFLTFEHVNYYTKENLICSLTQAGYWPVSVVEHFNSNLSPIIGILASTREQHHYDVMKMDVQLNRKRLSEYRQKELSYWQNCVDCIKVSLQQSQRIFLWGAGIHTCQLLANTDLLDHSRIFGLTDTSSLKWGLRQGEWICQDPQQIDWQVGDTVLISSYASEKEIFDALYWLRDKGVNTLRLHNVDDTRAIV", "soluble on expression in E. coli": "not soluble"},
      {"sequence": "MCPRTSCRFYPFTIDFGTFRMAIIHAKSMTIPTSKLVAFSDKFLQNLRCFNCAVMDIVKNDATLPLGHLEEYTPGNRIGNWIGPVKGINIPSHLKADFRKSQPLSITRSVREAEWCTPFINCTQYYICINHLFAERIATKLRQVMGHTMISNCVSLLYLTGDFRRSSRFSGPIESANITSNLEEHCWHSIVLDFFDFICINSMRAIIEGKYQCFRRFITKYLMFAFFNWYRISFENSIIMQNHFTCVRTTQMRHVVIPLFTLNKDSSITIKRNRPSNFLIVVALNLICLEHHHHHH", "soluble on expression in E. coli": "not soluble"},
      {"sequence": "FDGNLKRYLKSEPIPESNDGPVKVVVAENFDEIVNNENKDVLIEFYAPWCGHCKNLEPKYKELGEKLSKDPNIVIAKMDATANDVPSPYEVRGFPTIYFSPANKKLNPKKYEGGRELSDFISYLQREAT", "soluble on expression in E. coli": "soluble"}
    ]}
  ]
}
